Drawing on the Immune Epitope Database (IEDB), this text covers Kd and IC50 for 38 sequences.

The target of experiment [1] is HLA-A*01:01. The experiment in a line: IEDB peptide-MHC binding, purified MHC/competitive/radioactivity; filed as Kd, often an IC50 or EC50 that approximates it; ≥ and ≤ were set here for values at or beyond the usual limits of such assays.
The target in experiment [2] is HLA-A*02:01. The experiment in a line: IEDB peptide-MHC binding, purified MHC/competitive/fluorescence; ≥ and ≤ were set here for values at or beyond the usual limits of such assays.
The next experiment concerns the target HLA-A*23:01. The experiment is described as follows: IEDB peptide-MHC binding, purified MHC/competitive/radioactivity; filed as Kd, often an IC50 or EC50 that approximates it; ≥ and ≤ were set here for values at or beyond the usual limits of such assays.
The next experiment has as its target HLA-A*24:02. The description is as above.
The next experiment has as its target HLA-A*29:02. Described as above.
Experiment [3] concerns the target HLA-A*02:01. The experiment in a line: IEDB peptide-MHC binding, purified MHC/competitive/fluorescence; filed as Kd, often an IC50 or EC50 that approximates it; ≥ and ≤ were set here for values at or beyond the usual limits of such assays.
Another experiment concerns the target HLA-A*30:01. The experiment in a line: IEDB peptide-MHC binding, purified MHC/competitive/radioactivity; filed as Kd, often an IC50 or EC50 that approximates it; ≥ and ≤ were set here for values at or beyond the usual limits of such assays.
Another experiment addresses HLA-A*30:02. The description is as above.
The next experiment addresses HLA-A*03:01. The description is as above.
Experiment [4] has as its target HLA-A*11:01. The description is as above.
A further experiment addresses HLA-A*31:01. The description is as above. The note with it: source organism: Vaccinia virus WR.
Another experiment deals with HLA-A*33:01. The description is as above. The note with it: source organism: Vaccinia virus WR.
The next experiment has as its target HLA-A*68:01. Described as above. The note with it: source organism: Vaccinia virus WR.
Experiment [5] has as its target HLA-A*01:01. The experiment is described as follows: IEDB peptide-MHC binding, purified MHC/direct/fluorescence; filed as Kd, often an IC50 or EC50 that approximates it; ≥ and ≤ were set here for values at or beyond the usual limits of such assays. The note with it: source organism: SARS-CoV1.
The target in experiment [6] is HLA-A*11:01. The description is as above. The note with it: source organism: SARS-CoV1.
Another experiment has as its target HLA-A*26:01. The experiment is described as follows: IEDB peptide-MHC binding, purified MHC/competitive/radioactivity; filed as Kd, often an IC50 or EC50 that approximates it; ≥ and ≤ were set here for values at or beyond the usual limits of such assays. The note with it: source organism: SARS coronavirus Tor2.
Setting [7] is: source organism: Dengue virus 1 Brazil/97-11/1997.
Setting [8] is: source organism: Sudan ebolavirus.
The mark [9] stands for this setting: source organism: Dengue virus 4 Philippines/H241/1956.
Where [10] appears, read: source organism: Mammarenavirus brazilense.
The mark [11] stands for this setting: source organism: Vaccinia virus.
[12] abbreviates: source organism: Vaccinia virus WR.
[13] abbreviates: source organism: Dengue virus 2 Jamaica/1409/1983.
The mark [14] stands for this setting: source organism: Lymphocytic choriomeningitis virus (strain Armstrong).
Where [15] appears, read: source organism: Dengue virus 4 Thailand/0348/1991.
The mark [16] stands for this setting: source organism: Zaire ebolavirus.
Setting [17] is: source organism: SARS coronavirus Tor2.
The mark [18] stands for this setting: source organism: Dengue virus 3 Martinique/1243/1999.

For the sequence LTSREVLLL, the Kd in the experiment with HLA-A*01:01 [1] (setting [7]) is 288 nM.

Consider LTTPENITT, for which the IC50 with HLA-A*02:01 [2] (setting [8]) is not below 157000 nM.

For LYPLAIPVTM, the values for the Kd with HLA-A*23:01 (setting [9]) and with HLA-A*24:02 (setting [9]) were 336 nM and 1510 nM, respectively. In the case of LYTVKFPNLI, the dissociation constant (Kd) in the experiment with HLA-A*23:01 (setting [10]) was 538 nM; in the experiment with HLA-A*24:02 (setting [10]), 605 nM; with HLA-A*29:02 (setting [10]), not below 54700 nM.

As to MFGGVSWMV, the dissociation constant (Kd) in the experiment with HLA-A*23:01 (setting [9]) was 8790 nM. In turn, MLAESCDSV had a Kd in the experiment with HLA-A*02:01 [3] (setting [11]) of 1.1 nM. In turn, MPQMKKILK came in with a Kd in the experiment with HLA-A*02:01 [3] (setting [12]) of 2010 nM. For the sequence MRSRWSRKML, the Kd with HLA-A*30:01 (setting [7]) was determined as 175 nM. MTRLPILLL: the dissociation constant Kd in the experiment with HLA-A*30:01 (setting [12]) stood at 0.646 nM. Consider NSLEVEDYGF, for which, in the experiment with HLA-A*23:01 (setting [13]), the dissociation constant Kd was determined as 5430 nM.

Consider NVLDEKYNT, for which the IC50 in the experiment with HLA-A*02:01 [2] (setting [11]) is not below 319000 nM. In the case of PMMCPFLFL, the figures for the equilibrium dissociation constant (Kd) with HLA-A*23:01 (setting [14]), with HLA-A*24:02 (setting [14]) and in the experiment with HLA-A*29:02 (setting [14]) were 220 nM, 484 nM and 208 nM, respectively. RGWGNGCGLF: the dissociation constant Kd in the experiment with HLA-A*23:01 (setting [15]) amounted to 898 nM; with HLA-A*30:02 (setting [15]), 15.4 nM.

Turning to RIQQYMFFM, the Kd in the experiment with HLA-A*02:01 [3] (source organism: Human alphaherpesvirus 1 strain 17) stood at 81 nM. As to RNRVSTPQG, the equilibrium dissociation constant (Kd) with HLA-A*30:01 (setting [9]) stood at 132 nM. Regarding RSQGPFDAV, in the experiment with HLA-A*02:01 [2] (setting [16]), the IC50 is not below 163000 nM. RSTPFNMLK: the equilibrium dissociation constant (Kd) in the experiment with HLA-A*03:01 (setting [13]) was found to be 8.05 nM; in the experiment with HLA-A*11:01 [4] (setting [13]), 14.1 nM; in the experiment with HLA-A*30:01 (setting [13]), 20.4 nM. As to RTRAINKYS, the Kd with HLA-A*30:01 (setting [12]) came to 12.7 nM. For the sequence RVLFSIFYK, the dissociation constant Kd came to 5.35 nM in the experiment with HLA-A*03:01 (setting [12]); 53.2 nM with HLA-A*11:01 [4] (setting [12]); 118 nM in the experiment with HLA-A*30:01 (setting [12]); 0.861 nM in the experiment with HLA-A*31:01; 1860 nM with HLA-A*33:01; 120 nM with HLA-A*68:01. Regarding RVLSIPPTA, in the experiment with HLA-A*30:01 (setting [9]), the Kd is 118 nM. SFFLWVIIL returned an IC50 in the experiment with HLA-A*02:01 [2] (setting [16]) of 14600 nM.

As for SFYADPKRFF, the Kd stood at 126 nM in the experiment with HLA-A*23:01 (setting [14]), 709 nM with HLA-A*24:02 (setting [14]) and 44.4 nM with HLA-A*29:02 (setting [14]). With SSTNQLRSV, the IC50 with HLA-A*02:01 [2] (setting [16]) stood at 48200 nM.

Regarding SWLVHKQWFL, the figures for the equilibrium dissociation constant (Kd) with HLA-A*23:01 (setting [7]) and with HLA-A*24:02 (setting [7]) were 173 nM and 2700 nM, respectively. Regarding TCDGNTFTY, the Kd is 531 nM with HLA-A*01:01 [5]; 2480 nM in the experiment with HLA-A*11:01 [6]; not below 77800 nM with HLA-A*23:01 (setting [17]); not below 23900 nM with HLA-A*24:02 (setting [17]); not below 38600 nM with HLA-A*26:01; 6.85 nM with HLA-A*29:02 (setting [17]). Besides, the Kd with HLA-A*30:02 (setting [17]) was found to be 107 nM. As to TEAEKQLQQ, the IC50 in the experiment with HLA-A*02:01 [2] (setting [16]) is not below 338000 nM. As for TEQAFYTRV, the IC50 in the experiment with HLA-A*02:01 [2] (setting [12]) was not below 98400 nM.

In the experiment with HLA-A*02:01 [2] (setting [8]), TGILGSLGL showed a concentration for half-maximal inhibition (IC50) not below 92700 nM.

Sequence TGPCPGDYA gave a concentration for half-maximal inhibition (IC50) in the experiment with HLA-A*02:01 [2] (setting [8]) of 34900 nM. For TLLQAAPTL, the IC50 with HLA-A*02:01 [2] (source organism: Mycobacterium tuberculosis) was 50 nM.

Regarding TNLEYKTLC, in the experiment with HLA-A*02:01 [2] (setting [11]), the half-maximal inhibitory concentration (IC50) was not below 773000 nM. In the experiment with HLA-A*02:01 [2] (setting [8]), TTPENITTA displayed an IC50 of 19000 nM. As for VLFRLENHA, the equilibrium dissociation constant (Kd) in the experiment with HLA-A*02:01 [3] (source organism: Vaccinia virus WR 65-16) turned out to be 56.5 nM. As for VLPEEQDQNY, the results for the dissociation constant (Kd) with HLA-A*01:01 [1] (setting [18]) and with HLA-A*30:02 (setting [18]) were 11000 nM and 6870 nM, respectively.

Consider VLTLATGPVL, for which the Kd with HLA-A*30:01 (setting [9]) was 1500 nM. VVLTGGTGV: the IC50 in the experiment with HLA-A*02:01 [2] (source organism: Variola virus) turned out to be 3800 nM.

As for WTEQYKFQA, in the experiment with HLA-A*01:01 [1] (setting [7]), the Kd is not below 20200 nM.

YSDRRWCFD: the Kd with HLA-A*01:01 [1] (setting [7]) came out at 1070 nM.

As a reminder, the Kd is the equilibrium constant for the complex coming apart. A word on the IC50: it is the concentration that inhibits the measured activity by half. Low readings indicate inhibition by little substance, high ones a need for much substance.
